Laboratory results: patent US20130039933

How the values were obtained:
[1] = molecular target: S366 peptide (STING peptide substrate with serine 366)
[2] = molecular target: A366 peptide (STING peptide substrate with alanine at 366)

B1: GRK7 (protein)
chain: MVDMGALDNLIANTAYLQARKPSDCDSKELQRRRRSLALPGLQGCAELRQKLSLNFHSLCEQQPIGRRLFRDFLATVPTFRKAATFLEDVQNWELAEEGPTKDSALQGLVATCASAPAPGNPQPFLSQAVATKCQAATTEEERVAAVTLAKAEAMAFLQEQPFKDFVTSAFYDKFLQWKLFEMQPVSDKYFTEFRVLGKGGFGEVCAVQVKNTGKMYACKKLDKKRLKKKGGEKMALLEKEILEKVSSPFIVSLAYAFESKTHLCLVMSLMNGGDLKFHIYNVGTRGLDMSRVIFYSAQIACGMLHLHELGIVYRDMKPENVLLDDLGNCRLSDLGLAVEMKGGKPITQRAGTNGYMAPEILMEKVSYSYPVDWFAMGCSIYEMVAGRTPFKDYKEKVSKEDLKQRTLQDEVKFQHDNFTEEAKDICRLFLAKKPEQRLGSREKSDDPRKHHFFKTINFPRLEAGLIEPPFVPDPSVVYAKDIAEIDDFSEVRGVEFDDKDKQFFKNFATGAVPIAWQEEIIETGLFEELNDPNRPTGCEEGNSSKSGVCLLL
[1]
  Activity (cpm): 13100 cpm
  Fold induction: 1.81 fold
[2]
  Activity (cpm): 7260 cpm
